This is an account of results in patent publication US20200270588A1, “GLUCOSYL TRANSFERASE POLYPEPTIDES AND METHODS OF USE” (Syngenta Participations AG, priority 2017, published 2020).

Where a chain is given by its changes, count along the chain named. Numbers in names are those of the source.

To fix the notation:
B1: A79S: bx9 SEQ ID NO:1 mutant (protein)
chain: MASSRTGAGAGGRVVVFPFPFQGHFNPVMRLARALHARGLAITVFHSGALDPADYPADYRFVPVTVEADPKLLASEDISAIVTTLNASCDAPFRARLSALLAAEGRDSVRCVFTDVSWNAVLTASSDLGVPALGMMTASAASLRDYMAYRTLIDKGYLPVKEERKEDPVPELPPYLVKDLLRVDTSDLEEFAELLARTVTAARRASGLIFNTFPLIETDTLAEIHKALSVPVFAVAPLNKLVPTATASLHGVVQADRGCLQWLDTQQPGSVLYVSFGSMAAMDPHEFVELAWGLADSKRPFVWVVRPNLIRGFESGALPDGVEDEVRGRGIVVAWAPQEEVLAHPAVGGFLTHNGWNSTVEAISEGVPMVCCPRHGDQFGNMRYVCDVWKVGTELVGEQLERGQVKAAIDRLFGTKEGEEIKERMKEFKIAAAKGIGIGVDVDETASPRTDLTDLVDLIKSF
modifications: Zea mays
B2: M135C: bx9 SEQ ID NO:1 mutant (protein)
chain: B1 chain with S79A, M135C
modifications: Zea mays
B3: V116I: bx9 SEQ ID NO:1 mutant (protein)
chain: B1 chain with S79A, V116I
modifications: Zea mays
B4: M135L: bx9 SEQ ID NO:1 mutant (protein)
chain: B1 chain with S79A, M135L
modifications: Zea mays
B5: L194D: bx9 SEQ ID NO:1 mutant (protein)
chain: B1 chain with S79A, L194D
modifications: Zea mays
B6: A79N: bx9 SEQ ID NO:1 mutant (protein)
chain: B1 chain with S79N
modifications: Zea mays
B7: M135T: bx9 SEQ ID NO:1 mutant (protein)
chain: B1 chain with S79A, M135T
modifications: Zea mays
B8: I153L: bx9 SEQ ID NO:1 mutant (protein)
chain: B1 chain with S79A, I153L
modifications: Zea mays
B9: I153T: bx9 SEQ ID NO:1 mutant (protein)
chain: B1 chain with S79A, I153T
modifications: Zea mays
B10: A79Q: bx9 SEQ ID NO:1 mutant (protein)
chain: B1 chain with S79Q
modifications: Zea mays
B11: A79E: bx9 SEQ ID NO:1 mutant (protein)
chain: B1 chain with S79E
modifications: Zea mays
B12: L194G: bx9 SEQ ID NO:1 mutant (protein)
chain: B1 chain with S79A, L194G
modifications: Zea mays
B13: I153V: bx9 SEQ ID NO:1 mutant (protein)
chain: B1 chain with S79A, I153V
modifications: Zea mays
B14: I153K: bx9 SEQ ID NO:1 mutant (protein)
chain: B1 chain with S79A, I153K
modifications: Zea mays
B15: I153Y: bx9 SEQ ID NO:1 mutant (protein)
chain: B1 chain with S79A, I153Y
modifications: Zea mays
B16: V116L: bx9 SEQ ID NO:1 mutant (protein)
chain: B1 chain with S79A, V116L
modifications: Zea mays
B17: A79G: bx9 SEQ ID NO:1 mutant (protein)
chain: B1 chain with S79G
modifications: Zea mays
B18: I153C: bx9 SEQ ID NO:1 mutant (protein)
chain: B1 chain with S79A, I153C
modifications: Zea mays
B19: L194I: bx9 SEQ ID NO:1 mutant (protein)
chain: B1 chain with S79A, L194I
modifications: Zea mays
B20: L194T: bx9 SEQ ID NO:1 mutant (protein)
chain: B1 chain with S79A, L194T
modifications: Zea mays
B21: I153Q: bx9 SEQ ID NO:1 mutant (protein)
chain: B1 chain with S79A, I153Q
modifications: Zea mays
B22: I153R: bx9 SEQ ID NO:1 mutant (protein)
chain: B1 chain with S79A, I153R
modifications: Zea mays
B23: L194E: bx9 SEQ ID NO:1 mutant (protein)
chain: B1 chain with S79A, L194E
modifications: Zea mays
B24: I153F: bx9 SEQ ID NO:1 mutant (protein)
chain: B1 chain with S79A, I153F
modifications: Zea mays
B25: I153M: bx9 SEQ ID NO:1 mutant (protein)
chain: B1 chain with S79A, I153M
modifications: Zea mays
B26: L194Q: bx9 SEQ ID NO:1 mutant (protein)
chain: B1 chain with S79A, L194Q
modifications: Zea mays

This assay in a line: UDP luminescence plate assay of E. coli extracts, saturation mutants of SEQ ID NO: 1, herbicide V. Format: biochemical, Zea mays. Particulars: improvement factor relative to w/t bx9 = 1.0, rounded to nearest 0.5; extract activity basis; compound V. The procedure: Competent BL21 (DE3) cells are transformed as in the foregoing examples and, following seed culturing, grown and autoinduced in plates in a 0.5-1 ml volume of autoinduction medium containing 50 ug/ml kanamycin. Plates are incubated at 37° C. and shaken at 900 rpm. Growth is monitored by taking 20 ul aliquots, diluting 10 fold into flat-bottomed 96 well microtiter plates and reading OD600n at t=0, 1, 2, 2½ and 3 hours if necessary. At a (corrected) OD600 nm˜0.2, plates are transferred to 20° C. and shaken overnight at 900 rpm in a Jencons VWR plate incubator. After ˜18-20 h the final OD600 readings are recorded and the plates centrifuged at 4600 rpm (bench top centrifuge) for 10 min at 4° C. The supernatant is discarded and the pellets then washed with 0.25 ml PBS by repeat centrifugation and removal of supernatant before freezing cell pellets at −80° C. To prepare extracts, plates are allowed to thaw for 30 min and then pellets are resuspended in 0.25 ml of a suitable lysis buffer (for example—50 mM Tris HCL buffer at pH 8.0, 5% glycerol containing 50 mM NaCl and lysonase) mixed, incubated at room temperature for a sufficient time for lysis to be near complete and then centrifuged to remove cell debris and 100 ul of supernatant extract removed to a 96 well V-shaped well plate and stored on ice prior to assay.
Optionally plate assays are stopped with brief heating to 95 C before returning to ice and addition of UDP-Glo detection reagent followed by incubation at lab temperature. […] In addition a UDP standard curve is run alongside each set of plate tests.
Making use of the ELISA assay it is then possible to calculate a specific activity (e.g. in Relative Luminescence Units (RLU)/min/ug bx protein) based upon the amount of each mutant bx9 polypeptide expressed in each well. […] The specific activity of the various test mutant extracts on the same plate are then expressed as a fraction of the specific activity of the w/t bx9 and thus the ‘improvement factor’ versus the w/t expressed as a decimal where, for example, ‘0.5’ means half the specific activity of the wild type and 2.0 means twice the specific activity of the wild type. However, as will be readily apparent to the skilled man, particularly in cases where the UDP assay signal was low (with poor signal to noise versus the background) and/or the ELISA measurement of bx protein also low such a method is prone to generate spurious high specific activity numbers and uncertain numbers.
For B1, the “Preferred amino acid substitutions and (IF) based on RLU/min/ul” value is given as 1.0.

Take B2: the “Preferred amino acid substitutions and (IF) based on RLU/min/ul” value is “T,C,L(1.0)”.

Take B3: the “Preferred amino acid substitutions and (IF) based on RLU/min/ul” value is on record as “L,I(1.0)”.

On to B4, for which the “Preferred amino acid substitutions and (IF) based on RLU/min/ul” value is recorded as “T,C,L(1.0)”. With B5, the “Preferred amino acid substitutions and (IF) based on RLU/min/ul” value was 1.0. Still for that read-out and setting: with B6 the figure was 1.0. On the same count and under the same terms, with B7 the entry was “T,C,L(1.0)”. Same read-out and setting: with B8 the entry was “T,C,K,V,L,M,Y(1.0);”; with B9, “T,C,K,V,L,M,Y(1.0);”; with B10, 1.0. Regarding B11, the “Preferred amino acid substitutions and (IF) based on RLU/min/ul” value is given as 1.5.

For the molecule B12, the “Preferred amino acid substitutions and (IF) based on RLU/min/ul” value is given as 1.0. The same measure, in the same setting: in the case of B13 it was “T,C,K,V,L,M,Y(1.0);”; in that of B14, “T,C,K,V,L,M,Y(1.0);”. B15: the “Preferred amino acid substitutions and (IF) based on RLU/min/ul” value is given as “T,C,K,V,L,M,Y(1.0);”. Still for that read-out and setting: with B16 the entry was “L,I(1.0)”. For B17, the “Preferred amino acid substitutions and (IF) based on RLU/min/ul” value was determined as 1.5. The same measure, in the same setting: with B18 the entry was “T,C,K,V,L,M,Y(1.0);”. Take B19: the “Most Preferred amino acid substitutions and (IF) based on RLU/min/ul” value is on record as 2.0. Regarding B20, the “Preferred amino acid substitutions and (IF) based on RLU/min/ul” value is given as 1.5. The same measure, in the same setting: in the case of B21 it was “Q,R,F(1.5)”; in that of B22, “Q,R,F(1.5)”.

On to B23, for which the “Preferred amino acid substitutions and (IF) based on RLU/min/ul” value is recorded as 1.0. As for B24, the “Preferred amino acid substitutions and (IF) based on RLU/min/ul” value is on record as “Q,R,F(1.5)”.

For the molecule B25, the “Preferred amino acid substitutions and (IF) based on RLU/min/ul” value is reported as “T,C,K,V,L,M,Y(1.0);”.

On to B26, for which the “Preferred amino acid substitutions and (IF) based on RLU/min/ul” value came out at 1.5.
